Source: US20240084011A1

B1: 78-8D14 scFv (scFv, part only; not given: Linker, domain order, 3xFLAG tag, V domains shown, not shown: another chain or arm of the molecule; small tags and cut ends)
VH: EVQLVESGGGLVQPGGSLRLSCAASGFTFSSYVMHWVRQAPGKGLEWVSAISWSGRGTYYADSVKGRFTISRDNSKNTLYLQMNSLRAEDTAVYYCARGRLFGLARYGEAFDVWGQGTLVTVSS
VL: DIQMTQSPSSLSASVGDRVTITCQASRDISNYLNWYQQKPGKAPKLLIYDASNLETGVPSRFSGSGSGTDFTFTISSLQPEDIATYYCQQFNSFPLTFGQGTKVEIK
B2: 78-24D9 scFv (scFv, part only; not given: Linker, domain order, 3xFLAG tag, V domains shown, not shown: another chain or arm of the molecule; small tags and cut ends)
VH: EVQLVESGGGLVQPGGSLRLSCAASGFTFSSSSMHWVRQAPGKGLEWVSGISGWGGSTSYADSVKGRFTISRDNSKNTLYLQMNSLRAEDTAVYYCARYLMSFNLTRTGWFDVWGQGTLVTVSS
VL: DIQMTQSPSSLSASVGDRVTITCQASQDIANYLNWYQQKPGKAPKLLIYDASNLETGVPSRFSGSGSGTDFTFTISSLQPEDIATYYCQQSDAWPWTFGQGTKVEIK
B3: 78-24D1 scFv (scFv, part only; not given: Linker, domain order, 3xFLAG tag, V domains shown, not shown: another chain or arm of the molecule; small tags and cut ends)
VH: EVQLVESGGGLVQPGGSLRLSCAASGFTFTSYSMHWVRQAPGKGLEWVSGISGSGRSTSYADSVKGRFTISRDNSKNTLYLQMNSLRAEDTAVYYCARDLMAFNLTRAGGFDVWGQGTLVTVSS
VL: DIQMTQSPSSLSASVGDRVTITCQASQDISNFLNWYQQKPGKAPKLLIYDASNLETGVPSRFSGSGSGTDFTFTISSLQPEDIATYYCQQGDAWPWTFGQGTKVEIK
B4: 78-8D6 scFv (scFv, part only; not given: Linker, domain order, 3xFLAG tag, V domains shown, not shown: another chain or arm of the molecule; small tags and cut ends)
VH: EVQLVESGGGLVQPGGSLRLSCVASGFTFSSYVMHWVRQAPGKGLEWVSAISWSGGGTYYADSVKGRFTISRDNSKNTLYLQMNSLRAEDTAVYYCARGRLFGLALYGEAFDVWGQGTLVTVSS
VL: DIQMTQSPSSLSASVGDRVTITCQASKDISNYLNWYQQKPGKAPKLLIYNASNLETGVPSRFSGSGSGTDFTFTISSLQPEDIATYYCQQFNSFPLTFGQGTKVEIK
B5: 78-8D22 scFv (scFv, part only; not given: Linker, domain order, 3xFLAG tag, V domains shown, not shown: another chain or arm of the molecule; small tags and cut ends)
VH: EVQLVESGGGLVQPGGSLRLSCAASGFTFSSYVMHWVRQAPGKGLEWVSAISWSGSGTYYADSVKGRFTISRDNSKNTLYLQMNSLRAEDTAVYYCARGRLFGLARYGEAFDVWGQGTLVTVSS
VL: DIQMTQSPSSLSASVGDRVTITCQASKDISNYLNWYQQKPGKAPKLLIYDASNLETGVPSRFSGSGSGTDFTFTISSLQPEDIATYYCQQFNSFALTFGQGTKVEIK
B6: 78-8D5 scFv (scFv, part only; not given: Linker, domain order, 3xFLAG tag, V domains shown, not shown: another chain or arm of the molecule; small tags and cut ends)
VH: EVQLVESGGGLVQPGGSLRLSCAASGFTFSSYVMHWVRQAPGKGLEWVSAISWSGGGTYYADSVKGRFTISRDNSKNTLYLQMNSLRAEDTAVYYCARGRLFGLALYGEAFDVWGQGTLVTVSS
VL: DIQMTQSPSSLSASVGDRVTITCQASKDISNYLNWYQQKPGKAPKLLIYDASNLETGVPSRFSGSGSGTDFTFTISSLQPEDIATYYCQQFNSFPLTFGQGTKVEIK
B7: 78-28 scFv (scFv, part only; not given: Linker, domain order, 3xFLAG tag, V domains shown, not shown: another chain or arm of the molecule; small tags and cut ends)
VH: EVQLVESGGGLVQPGGSLRLSCAASGFTFSSYYMHWVRQAPGKGLEWVSAIYGNGGYTYYADSVKGRFTISRDNSKNTLYLQMNSLRAEDTAVYYCARGRPARHQVGFDVWGQGTLVTVSS
VL: DIQMTQSPSSLSASVGDRVTITCQASLDISNYLNWYQQKPGKAPKLLIYDASNLETGVPSRFSGSGSGTDFTFTISSLQPEDIATYYCQQLYTVPLTFGQGTKVEIK
B8: 78-8D10 scFv (scFv, part only; not given: Linker, domain order, 3xFLAG tag, V domains shown, not shown: another chain or arm of the molecule; small tags and cut ends)
VH: MEVQLVESGGGLVQPGGSLRLSCAASGFTFSSYVMHWVRQAPGKGLEWVSAISWSGRGTYYADSVKGRFTISRDNSKNTLYLQMNSLRAEDTAVYYCARGRLFGLALYGEAFDVWGQGTLVTVSS
VL: DIQMTQSPSSLSASVGDRVTITCQASKDISNYLNWYQQKPGKAPKLLIYDASNLETGVPSRFSGSGSGTDFTFTISSLQPEDIATYYCQQFNSFPLTFGQGTKVEIK
B9: 78-8D7 scFv (scFv, part only; not given: Linker, domain order, 3xFLAG tag, V domains shown, not shown: another chain or arm of the molecule; small tags and cut ends)
VH: EVQLVESGGGLVQPGGSLRLSCAASGFTFSSYVMHWVRQAPGKGLEWVSAISWSGAGTYYADSVKGRFTISRDNSKNTLYLQMNSLRAEDTAVYYCARGRLFGRALYGEAFDVWGQGTLVTVSS
VL: DIQMTQSPSSLSASVGDRVTITCQASKDISIYLNWYQQKPGKAPKLLIYDAFNLETGVSSRFSGSGSGTDFTFTISSLQPEDIATYYCQQFNSFPLTFGQGTKVEIK
B10: 78-8 scFv (scFv, part only; not given: Linker, domain order, 3xFLAG tag, V domains shown, not shown: another chain or arm of the molecule; small tags and cut ends)
VH: EVQLVESGGGLVQPGGSLRLSCAASGFTFSSYVMHWVRQAPGKGLEWVSAISGSGGGTYYADSVKGRFTISRDNSKNTLYLQMNSLRAEDTAVYYCARGRLIGLALYGEAFDVWGQGTLVTVSS
VL: DIQMTQSPSSLSASVGDRVTITCQASKDISNYLNWYQQKPGKAPKLLIYDASNLETGVPSRFSGSGSGTDFTFTISSLQPEDIATYYCQQFNSFPLTFGQGTKVEIK
B11: 78-24D12 scFv (scFv, part only; not given: Linker, domain order, 3xFLAG tag, V domains shown, not shown: another chain or arm of the molecule; small tags and cut ends)
VH: EVQLVESGGGLVQPGGSLRLSCAASGFTFSSYSMHWVRQAPGKGLEWVSGISGSGLSTSYADSVKGRFTISRDNSKNTLYLQMNSLRAEDTAVYYCARDLMAFNLTRTGGFDVWGQGTLVTVSS
VL: DIQMTQSPSSLSASVGDRVTITCQASHDILNYLNWYQQKPGKAPKLLIYDASNLETGVPSRFSGSGSGTDFTFTISSLQPEDIATYYCQQGHAWLWTFGQGTKVEIK
B12: 78-8D4 scFv (scFv, part only; not given: Linker, domain order, 3xFLAG tag, V domains shown, not shown: another chain or arm of the molecule; small tags and cut ends)
VH: EVQLVESGGGLVQPGGSLRLSCAASGFTFSSYVMHWVRQAPGKGLEWVSAITWSGGGTYYADSVKGRFTISRDNSKNTLYLQMNSLRAEDTAVYYCARGRLFGLVRYGEAFDVWGQGTLVTVSS
VL: DIQMTQSPSSLSASVGDRVTITCQASKDISNYLNWYQQKPGKAPKLLIYDASNLETGVPSRFSGSGSGTDFTFTISSLQPEDIATYYCQQFNSFPLTFGQGTKVEIK
B13: 78-36 scFv (scFv, part only; not given: Linker, domain order, 3xFLAG tag, V domains shown, not shown: another chain or arm of the molecule; small tags and cut ends)
VH: MEVQLVESGGGLVQPGGSLRLSCVASGFTFSSYYMHWVRQAPGKGLEWVSAISGSGGSTYYADSVKGRFTISRDNSKNTLYLQMNSLRAEDTAVYYCARGRQVGKSSFGEAFDVWGQGTLVTVSS
VL: DIQMTQSPSSLSASVGDRVTITCQASQDISNYLNWYQQKPGKAPKLLIYDASNLETGVPSRFSGSGSGTDFTFTISSLQPEDIATYYCQQFTSFPYTFGQGTKVEIK
B14: 78-8D2 scFv (scFv, part only; not given: Linker, domain order, 3xFLAG tag, V domains shown, not shown: another chain or arm of the molecule; small tags and cut ends)
VH: EVQLVESGGGLVQPGGSLRLSCAASGFTFSSYVMHWVRQAPGKGLEWVSAITWSGRGTYYADSVKGRFTISRDNSKNTLYLQMNSLRAEDTAVYYCARGRLFGLALYGEAFDVWGQGTLVTVSS
VL: DIQMTQSPSSLSASVGDRVTITCQASKDISNYLNWYQQKPGKAPKLLIYDASNLETGVPSRFSGSGSGTDFTFIISSLQPEDIATYYCQQFNSFPLTFGQGTKVEIK
B15: 78-24D8 scFv (scFv, part only; not given: Linker, domain order, 3xFLAG tag, V domains shown, not shown: another chain or arm of the molecule; small tags and cut ends)
VH: EVQLVKSGGGLVQPGGSLRLSCAASGFTFSSYSMHWVRQAPGKGLEWVSGISGSGRSTSYADSVKGRFTISRDNSKNTLYLQMNSLRAEDTAVYYCARDLMAFNLTRTGGFDVWGQGTLVTVSS
VL: DIQMTQSPSSLSASVGDRVTITCQASQDISNYLNWYQQKPGKAPKLLIYDASNLETGVPSRFSGSGSGTDFTFTINSLQPEDIATYYCQQGDAWPWTFGQGTKVEIK
B16: 78-24D17 scFv (scFv, part only; not given: Linker, domain order, 3xFLAG tag, V domains shown, not shown: another chain or arm of the molecule; small tags and cut ends)
VH: EVQLVESGGGLVQPGGSLRLSCAASGFTFSSSSMHWVRQAPGKGLEWVSGISGSGGSTSYADSVKGRFTISRDNSKNTLYLQMNSLRAEDTAVYYCARYLMSFNLTRTSWFDVWGQGTLVTVSS
VL: DIQMTQSPSSLSASVGDRVTITCQASQAISNYLNWYQQKPGKAPKLLIYDASNLETGVPSRFSGSGSGTDFTFTISSLQPEDIATYYCQQGDAWPWTFGQGTKVEIK

Key:
[1] = target: recombinant human CTLA-4 protein (human) (UniProt P16410); test: SPR (Pioneer FE, OneStep), 25 C; 3xFLAG scFv captured by anti-FLAG M2, human CTLA-4 as analyte
recombinant human CTLA-4 protein (human), sequence (P16410 36-161 limits assumed): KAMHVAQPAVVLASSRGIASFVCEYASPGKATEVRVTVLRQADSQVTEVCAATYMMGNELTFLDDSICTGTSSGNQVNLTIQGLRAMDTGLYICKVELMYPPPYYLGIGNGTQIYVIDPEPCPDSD

[2] = target: recombinant mouse CTLA-4 protein (mouse) (UniProt P09793); test: SPR (Pioneer FE, OneStep), 25 C; 3xFLAG scFv captured by anti-FLAG M2, mouse CTLA-4 as analyte
recombinant mouse CTLA-4 protein (mouse), sequence (P09793 36-161 limits assumed): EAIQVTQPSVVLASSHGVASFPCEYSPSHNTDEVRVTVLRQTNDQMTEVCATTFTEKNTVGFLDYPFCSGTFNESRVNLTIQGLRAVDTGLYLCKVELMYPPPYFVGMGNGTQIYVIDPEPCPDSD

Row | Binder | Kd [1] | Kd [2]
1 | B1 | 320 pM | 170 pM
2 | B2 | 1180 pM | 1110 pM
3 | B3 | 1150 pM | 59 pM
4 | B4 | 240 pM | 190 pM
5 | B5 | 160 pM | 370 pM
6 | B6 | 740 pM | 420 pM
7 | B7 |  | 2570 pM
8 | B8 | 580 pM | 490 pM
9 | B9 | 300 pM | 390 pM
10 | B10 | 168000 pM | 60 pM
11 | B11 | 2880 pM | 10 pM
12 | B12 | 210 pM | 200 pM
13 | B13 |  | 980 pM
14 | B14 | 370 pM | 300 pM
15 | B15 | 1460 pM | 10 pM
16 | B16 | 870 pM | 1060 pM
